From patent publication US20060183195A1

Tests used:
[1] = target: recombinant soluble human CD4 (human) (UniProt P01730); assay: SPR, sCD4 amine-coupled to sensor chip, antibody flowed over
[2] = target: native human CD4 on the cell surface (human) (UniProt P01730); assay: flow cytometry, serial dilutions on SupT1 cells, half-maximal fluorescence

Substance: Leu3a (antibody)
- koff [1]: 4.2e-05 s⁻¹

Substance: chimeric Leu3a (antibody)
- Ka [2]: 5e+09 M⁻¹
